Data reported in US6444793.

Biological target: patched (receptor for Shh), on patched-transfected EBNA-293 cells
Test: FACS competition with Shh-Ig on patched-transfected EBNA-293 cells

Sequence of patched (receptor for Shh), on patched-transfected EBNA-293 cells (A3KBI9 whole entry): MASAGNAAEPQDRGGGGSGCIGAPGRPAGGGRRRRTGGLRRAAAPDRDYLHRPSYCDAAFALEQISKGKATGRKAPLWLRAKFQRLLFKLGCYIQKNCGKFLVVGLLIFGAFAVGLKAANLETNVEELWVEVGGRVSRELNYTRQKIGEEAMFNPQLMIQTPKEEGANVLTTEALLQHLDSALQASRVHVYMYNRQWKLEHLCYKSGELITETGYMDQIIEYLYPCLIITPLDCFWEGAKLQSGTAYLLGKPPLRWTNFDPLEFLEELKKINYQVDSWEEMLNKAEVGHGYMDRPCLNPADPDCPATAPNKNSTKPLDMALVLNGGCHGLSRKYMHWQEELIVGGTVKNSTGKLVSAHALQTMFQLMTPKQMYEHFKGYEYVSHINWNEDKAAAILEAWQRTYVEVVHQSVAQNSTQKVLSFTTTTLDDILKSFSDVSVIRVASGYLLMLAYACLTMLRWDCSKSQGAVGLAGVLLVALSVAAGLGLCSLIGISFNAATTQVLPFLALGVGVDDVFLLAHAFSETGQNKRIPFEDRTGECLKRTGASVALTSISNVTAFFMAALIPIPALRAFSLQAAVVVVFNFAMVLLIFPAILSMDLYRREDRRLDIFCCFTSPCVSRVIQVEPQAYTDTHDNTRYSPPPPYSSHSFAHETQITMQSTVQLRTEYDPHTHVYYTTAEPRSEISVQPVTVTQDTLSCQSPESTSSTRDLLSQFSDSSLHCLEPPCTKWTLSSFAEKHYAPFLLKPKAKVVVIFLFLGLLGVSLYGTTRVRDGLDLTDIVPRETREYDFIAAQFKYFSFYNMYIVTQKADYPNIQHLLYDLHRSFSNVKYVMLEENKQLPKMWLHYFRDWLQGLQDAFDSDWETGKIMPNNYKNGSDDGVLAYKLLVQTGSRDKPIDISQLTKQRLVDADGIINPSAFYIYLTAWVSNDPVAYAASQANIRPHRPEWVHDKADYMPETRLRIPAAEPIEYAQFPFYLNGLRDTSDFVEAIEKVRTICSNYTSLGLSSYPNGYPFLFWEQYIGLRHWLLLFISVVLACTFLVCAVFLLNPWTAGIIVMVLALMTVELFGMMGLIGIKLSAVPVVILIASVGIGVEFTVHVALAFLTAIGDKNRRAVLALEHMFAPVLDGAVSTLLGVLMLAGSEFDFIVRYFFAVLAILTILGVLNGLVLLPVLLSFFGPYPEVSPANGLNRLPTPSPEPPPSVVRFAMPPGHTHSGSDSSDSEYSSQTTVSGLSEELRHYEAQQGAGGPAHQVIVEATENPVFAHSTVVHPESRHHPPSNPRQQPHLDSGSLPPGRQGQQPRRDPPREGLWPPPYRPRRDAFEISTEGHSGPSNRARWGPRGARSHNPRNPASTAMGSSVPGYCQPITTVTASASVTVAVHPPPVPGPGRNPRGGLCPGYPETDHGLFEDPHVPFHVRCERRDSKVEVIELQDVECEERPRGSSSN

Row | Substance | IC50 [µg/mL]
1 | tethered human Sonic hedgehog (N-terminal fragment with a palmitoyl group at the N-terminus and cholesterol at the C-terminus, purified from High Five insect cells) (from UniProt Q14623 28-201) (ligand) | 0.4
2 | soluble human Sonic hedgehog N-terminal fragment (unmodified, Cys-1 to Gly-174, produced in E. coli) (from UniProt Q14623 28-201) (ligand) | 0.15
